In patent publication US20190381150:

B1: EndoBI-2 (endo-β-N-acetylglucosaminidase from B. infantis SC142), recombinant, signal peptide and transmembrane domains omitted (protein)
chain: VANAQEGDSPVAASQEGNGNKHFMVYYRAWRDVTMKGVNTDLPDDNWISMYDIPYGIDVVNVFSYVPSGQEAAAQPFYDKLKSDYAPYLHARGVKLVRGLDYSGVMVDGFKTWIAQQGKNVDSATESDYDAYADHVIETYMTSVGLDGLDIDMETFPDAAQVAISDQVITALAKRIGPKSDNPEGTMFLYDTNGSYTAPFKNVSDCFDYVAYQQYGSDSNRTAKAAATYEQFIDSTKFVPGLTFPEEGDMNNRWNDATEPYLDSHFYDVASYSYDHNLGGMFVYALDRDGRTYSDDDLAHIKPSNLIWTKTAIAQSQGMSLENAKQAANHFLDRMSYTKDVPAETRQTVAAATNLYEVNKAVLGADWNDGYSNTYDPTLELSLASIDTTALTGAIAKADALLADGATDTDVRTTLTTARNAA
B2: EndoBI-1 (endo-β-N-acetylglucosaminidase from B. infantis ATCC 15697, Blon_2468), recombinant, signal peptide and transmembrane domains omitted (protein)
chain: NADAVSPTQETIQSTGRHFMVYYRAWRDVTMKGVNTDLPDDNWISMYDIPYGVDVVNIFSYVPSGQEEQAQPFYDKLKSDYAPYLHSRGIKLVRGIDYTGVAVNGFRTFMKEQNKTESEATEADYDAYAKQVIDKYMISVGLDGLDIDMEAHPNDADVKISDNVIRALSKHIGPKSAKPDTTMFLYDTNGSYLNPFKNVAECFDYVAYQQYGSSSDRTARAAADYQPYIGNEFVPGLTFPEEGDMNNRWYDATEPYEESHFYQVASYVREHNLGGMFVYALDRDGRNYDEDLRRIVPSNLLWTKTAIAESEGMALDTAKTAANHYLDRMSLRQVIDDNAASADKARDMVGKAANLYETNKAVLGGDYGEGFSNTYDPTLEAGLLGIDISVLQQQIDKSSEIIGADTAESDAKTALRMARDAAIDGLTGKIYTADQVSAWSQALKAALDATVPVPTPDSTDQNGNRDKVTNHKVQGQPKQLSAT
B3: EndoBB (GH85 endo-β-N-acetylglucosaminidase, BLD_0197 from B. longum DJO10A), recombinant, signal peptide and transmembrane domain omitted (protein)
chain: CSGGTSATKYTITPENENEELVLGNRPEASYWFPEDLLKWNADKDPNLAYNVSTVPLAKRVDKADLKPVNDTQNTDTKVMAISIMNSSTSGNAPHGLNTANANTFSYWQYVDELVYWGGSSGEGIIVPPSPDVTDMGHTNGVPVLGTVFFPQNVSGGKVEWLDQTLAQKSDGSFPVADKLIEVATTYGFDGWFINQETEGENETSLGADYATKMQAFIAYLKKQAPDLRVVYYDSMTKDGSIDWQNALTDENSMYMTDGDHPIADEMFLNFWWTEDKLAGDDLLAASATKAKELGIDPYSLYAGIDVQADGYDTPVKWNLFAGKDGKTHTSLGLYCPSWAYWSAGNPTTFRKNESRLWVNDEGNPSVSTPYEDDEKWTGVSNYVAEQSAVTSLPFVTNFNNGSGYSFFREGKQISKMDWNNRSVSDIQPTYRWIVADEGGNKTKADYSDADAWYGGSSLKFSGKVAKDGKTMVKLYSASVKTGAKPTLSIAAKANVDTDLKAVLTFADGSVETVNGKKKVGNDWGVIDYDIAKLSNKTLTGIDFTYQSSEDKTGYELLLGNITLKDGSEETELGKVTEVKVDDSEFDDDALYAGARISWKTDGKAPAYEIYQINEDKSRSFLGVSNVENFYANALTRVGETNNTTFEIVPVDRYGTQGTSAKADMDWPDNSKPKAGATASRTLLNVGDEVTFTSASSKNTAEVAWSLPGSSKEHATGKSVTVTYDKEGVYDVEITAKNKSGEATATLKGQIVVSADVMDLVLLSQGAQVSADGFTNGNEKPEFAVDGDVKTKWCVTGPAPHELVVDLGAPKTVSQVDISHAQAGGEDASMNTQEYAIEVSEDGTEYTQVALVKGNTEGATSNAFAPVNARYVKLVVNKPTQGSDTAARIYEMQVRGADGAIL

What was measured:
[1] = molecular target: Human lactoferrin (lactoferrin from human milk, Sigma), P02788
Sequence of Human lactoferrin (lactoferrin from human milk, Sigma), P02788 (P02788 20-710): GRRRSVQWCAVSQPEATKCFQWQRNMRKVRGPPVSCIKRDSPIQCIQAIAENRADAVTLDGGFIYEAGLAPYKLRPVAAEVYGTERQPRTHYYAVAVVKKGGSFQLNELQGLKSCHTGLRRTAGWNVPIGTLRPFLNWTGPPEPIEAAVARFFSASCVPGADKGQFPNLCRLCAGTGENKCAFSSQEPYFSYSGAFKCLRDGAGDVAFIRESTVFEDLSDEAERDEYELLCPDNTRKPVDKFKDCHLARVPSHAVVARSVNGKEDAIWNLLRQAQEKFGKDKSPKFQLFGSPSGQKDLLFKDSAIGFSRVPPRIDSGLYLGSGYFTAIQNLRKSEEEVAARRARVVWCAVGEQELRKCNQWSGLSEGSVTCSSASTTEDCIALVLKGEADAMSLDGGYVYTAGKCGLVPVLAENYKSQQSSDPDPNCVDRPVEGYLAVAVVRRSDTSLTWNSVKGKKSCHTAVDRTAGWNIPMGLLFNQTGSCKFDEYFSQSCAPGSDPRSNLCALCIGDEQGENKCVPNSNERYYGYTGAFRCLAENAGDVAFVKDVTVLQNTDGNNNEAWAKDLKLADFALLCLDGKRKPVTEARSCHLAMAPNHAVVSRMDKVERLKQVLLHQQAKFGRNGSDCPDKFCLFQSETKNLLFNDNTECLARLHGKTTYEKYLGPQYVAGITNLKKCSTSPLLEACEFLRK

[2] = molecular target: Bovine lactoferrin (lactoferrin from bovine milk, Sigma), P24627
Sequence of Bovine lactoferrin (lactoferrin from bovine milk, Sigma), P24627 (P24627 20-708): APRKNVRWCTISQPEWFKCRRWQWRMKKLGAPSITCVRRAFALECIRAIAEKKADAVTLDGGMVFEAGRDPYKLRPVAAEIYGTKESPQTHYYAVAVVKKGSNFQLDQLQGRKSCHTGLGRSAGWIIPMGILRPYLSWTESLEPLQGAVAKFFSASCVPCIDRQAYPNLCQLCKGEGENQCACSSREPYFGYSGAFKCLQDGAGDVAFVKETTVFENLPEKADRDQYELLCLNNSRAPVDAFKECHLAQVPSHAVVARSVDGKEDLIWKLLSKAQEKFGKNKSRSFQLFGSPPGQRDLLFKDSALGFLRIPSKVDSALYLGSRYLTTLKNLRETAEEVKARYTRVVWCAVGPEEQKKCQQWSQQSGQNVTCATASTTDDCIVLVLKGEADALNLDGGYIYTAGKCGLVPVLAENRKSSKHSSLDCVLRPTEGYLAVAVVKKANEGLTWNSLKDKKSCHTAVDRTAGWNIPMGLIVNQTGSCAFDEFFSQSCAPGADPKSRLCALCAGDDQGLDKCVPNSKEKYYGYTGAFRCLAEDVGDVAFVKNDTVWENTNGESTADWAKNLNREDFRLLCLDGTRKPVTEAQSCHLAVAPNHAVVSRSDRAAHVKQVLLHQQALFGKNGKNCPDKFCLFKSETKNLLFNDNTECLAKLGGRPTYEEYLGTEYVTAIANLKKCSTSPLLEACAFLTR

[3] = molecular target: T1, bovine fetuin, P12763
T1 chain: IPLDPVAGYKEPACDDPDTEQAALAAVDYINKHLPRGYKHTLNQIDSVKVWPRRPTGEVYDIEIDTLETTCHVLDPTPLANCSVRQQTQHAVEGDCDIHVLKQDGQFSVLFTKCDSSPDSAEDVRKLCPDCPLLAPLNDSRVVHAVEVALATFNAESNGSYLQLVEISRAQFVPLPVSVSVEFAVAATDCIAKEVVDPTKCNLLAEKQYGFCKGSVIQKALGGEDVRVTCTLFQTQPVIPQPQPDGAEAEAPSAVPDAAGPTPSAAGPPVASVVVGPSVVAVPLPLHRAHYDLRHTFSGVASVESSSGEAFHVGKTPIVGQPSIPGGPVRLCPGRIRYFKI

[4] = molecular target: T2, Bovine ribonuclease B (ribonuclease B from bovine pancreas, Sigma-Aldrich), P61823
T2 chain: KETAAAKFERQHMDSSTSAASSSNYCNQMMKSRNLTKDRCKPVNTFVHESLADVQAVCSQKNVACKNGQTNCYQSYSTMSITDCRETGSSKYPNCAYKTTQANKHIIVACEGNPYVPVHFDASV

Row | Protein | deglycosylation, SDS-PAGE after overnight incubation [1] | deglycosylation, change in MW on SDS-PAGE after overnight incubation [2] | shift in molecular weight on SDS-PAGE of human milk after overnight incubation [1] | release of N-glycans [3] | deglycosylation (cleavage of high mannose glycans) [4] | deglycosylation (cleavage of high mannose glycans) [1] | deglycosylation (cleavage of high mannose glycans) [2]
1 | B1 | EndoBI-1 and EndoBI-2 cleaved hLF | all of them were able to cleave bLF, as observed by discrete changes in MW on SDS-PAGE gels | – | – | – | – | –
2 | B2 | EndoBI-1 and EndoBI-2 cleaved hLF | all of them were able to cleave bLF, as observed by discrete changes in MW on SDS-PAGE gels | produced a shift in the molecular weight of primarily lactoferrin | releasing N-glycans from human IgA, IgG, RNase B and bovine fetuin | – | – | –
3 | B3 | – | all of them were able to cleave bLF, as observed by discrete changes in MW on SDS-PAGE gels | – | – | cleaving RNAseB and bLF, but not hLF | cleaving RNAseB and bLF, but not hLF | cleaving RNAseB and bLF, but not hLF
